Test results reported in the nanobody polyreactivity screen of Harvey et al. (2022).

Assay: yeast display, Sf9 membrane polyspecificity reagent, FACS + sequencing; frameworks hold sequencing errors
How it was run: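 In a synthetic yeast display library (Saccharomyces cerevisiae BJ5465), nanobody expression was induced with galactose for 36–48 hours. FACS gates were set low and high (top ~1%) using anti-HA fluorescence for expression and streptavidin fluorescence for binding of the Sf9 membrane reagent. Each polyreactivity label is drawn from the gate of origin.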

Sequence	polyreactivity (PSR sort gate)
QVQLVESGGGLVQAGGSLRLSCAASGFTFRKNAMGWYRQAPGKERELVAAISSGSGSTYYADSVKGRFTISRDNAKNTVYLQMNSLKPEDTAVYYCNSEAYYTTGYPTSDVFDRYDYWGKGTQVTVSS	low polyreactivity
QVQLVESGGGLVQAGGSLRLSCAASGFTFRKYAMGWYRQAPGKERELVADISGGTGSTYYADSVKGRFTISRDNAKNTDYLHMNSLKPEDTAVYYCNAEGWYYLTEYGYWGQGTQLTVSS	low polyreactivity
QVQLVESGGGLVQAGGSLRLSCAASGFTFRKYAMGWYRQAPGKESELVAAISWSGGSTYYADSVKGRFTISRDNAKNTVYLQMNSMKPEDTAVYYCAAPHWSPYDYWGQGTQVTVSS	high polyreactivity
QVQLVESGGGLVQAGGSLRLSCAASGFTFRLVNAMGWYRQAPGKERELVAGINSGDITYYADSVKGRFTISRDNAKNTVYLQMNSLKPEDTAVYYCAARVAWGYDYWGQGTQVTVSS	low polyreactivity
QVQLVESGGGLVQAGGSLRLSCAASGFTFRNYAMGWYIQAPGKERELVATISWSGTSTYYADSVKGRFTISRDNAKNTVYLQMNSLKPEDTAVYYCAARGRHSGYYSFPYYYWGQGTQVTVSS	low polyreactivity
QVQLVESGGGLVQAGGSLRLSCAASGFTFRNYAMGWYRQAPGKEREFVAAISFSGGRTYYADSVKGRFTISRDNAKNTVYLQMNSLKPEDTAVYYCAKKSYSKYDYWGQGTQVTVSS	low polyreactivity
QVQLVESGGGLVQAGGSLRLSCAASGFTFRPYVMGCYRQAPGKERELVAGISTGGSTYYADSVKGRFTISRDNAKNTVYLQMNSLKPEDTAVYYCAKRGKQYRKMNYWGQGTQVTVSS	high polyreactivity
QVQLVESGGGLVQAGGSLRLSCAASGFTFRQNAMGWYIQAPGKERELVAAISRGGGGTHYADSVKGRFTISRDNAKNNVYLHMNSLKPEDTAVYYCAKRRYPTFVVPVYYWGQGTQVTVSS	high polyreactivity
QVQLVESGGGLVQAGGSLRLSCAASGFTFRQNSIGWSRQAPGKERELVAAISRSGSRTYYADSVKGRFTISRDNAKNTVYLQMIRLKPEDTAVYYCKAVFSSFTVEYYWGQGTQVTVSS	high polyreactivity
QVQLVESGGGLVQAGGSLRLSCAASGFTFRRNAMGWYRQAPGKERELVAAITASGGRTYYADSVKGRFTISRDYAKNTVYLQMNSLKPEDTAVFYCAARLRNIYYFRMGYWGQGTKVTVSS	high polyreactivity
QVQLVESGGGLVQAGGSLRLSCAASGFTFRRNAMGWYRQAPGKERELVAAITRGGGSTYYADSVKGRFTISRDNAKNTVYLQMNSLKPEDTAVYYCAADGYYQYESWGQGTQVTVSS	high polyreactivity
QVQLVESGGGLVQAGGSLRLSCAASGFTFRRYAMGWYIQAPGKERELVAAIRSTGGSTYYADSVKGRFTISRDNAKNTVYLQMNSLKPEDTAVYYCNAGTPVRGYNYWGQGTQVTVSS	high polyreactivity
QVQLVESGGGLVQAGGSLRLSCAASGFTFRRYAMGWYRQAPGKERELVAAINWNGDSTYYADSVKGRFTISRDNAKNTVYLQMNSVKPEDTAVYYCATSDYYYDYWGQGTQVTVSS	high polyreactivity
QVQLVESGGGLVQAGGSLRLSCAASGFTFRRYAMGWYRQAPGKERELVAAISIRGGRTYYADSVKGRFTISRDNAKNTVYLQMNSLKPEDTAVYYCAAEVGFWGYGGYYYWGQGTQVTVSS	high polyreactivity
QVQLVESGGGLVQAGGSLRLSCAASGFTFRRYAMGWYRQAPGKERELVAAISYSGGITYYADSVKGRFTISRDNAKNTVYLQMNSLKPEDTAVYYCAAESVWTWYYTTAGMDYWGQGTQVTVSS	high polyreactivity
QVQLVESGGGLVQAGGSLRLSCAASGFTFRRYAMGWYRQAPGKERELVAAITWSGGSTYYADSVKGRFTISRDNAKNTVYLQMNSLKPEDTAVYYCNKAYSPLYFSYNYWGQGTQVTVSS	high polyreactivity
QVQLVESGGGLVQAGGSLRLSCAASGFTFRRYAMGWYRQAPGKERELVATITKGGGSTYYADSVKGRFTISRDNAKNTVYLQMNSLKPEDTAVYYCAKRYPYGLTVGASDYWGQCTQVTVSS	high polyreactivity
QVQLVESGGGLVQAGGSLRLSCAASGFTFRRYAMGWYRQAPGKERELVAVITSTDSTYYADSVKGRFTISRDNAKNTVYFQMYSLKPEDTAVYYCARVYLGPRYAVFIYGYWGQGTQVTVSS	high polyreactivity
QVQLVESGGGLVQAGGSLRLSCAASGFTFRRYAMGWYRQAPGKERELVAVITTAGSTNYADSVKGRFTISRDNAKNTVYLQMNSLKPEDTAVYYCATDNGTRKRRYDYWGQGTQVTVSS	low polyreactivity
QVQLVESGGGLVQAGGSLRLSCAASGFTFRRYAMGWYRQAPGKERELVAVITTGGSTYYADSVKGRFTISRDNAKYTVYLQMNSLKPEDTAVYYCAARYYWYSQEYVMSSWWGDYWGLGTQVTVSS	high polyreactivity
QVQLVESGGGLVQAGGSLRLSCAASGFTFRRYDMGWYRQAPGKERELVATINRGGSTDYADSVKGRFTISRDNAKNTVYLQMNSLKPEDTAVYYCATRYYSSRTWSEYYYWGQGTQVTVSS	high polyreactivity

Sequence	polyreactivity (PSR sort gate)
QVQLVESGGGLVQAGGSLRLSCAASGFTFRRYTMGWYRQAPGKERELVARISSRGGRTFYADSVKGRFTISRDNAKNTVYLQMNSLKPEDTAVYYCAKRAPYGTTSPGGDYWGQGTQVTVSS	high polyreactivity
QVQLVESGGGLVQAGGSLRLSCAASGFTFRRYVMGWYRQAPGKERELVAAISSGGRTNYADSVKGRFTISRYNAKNTVYLQMNSLKPEDTAVYYCNKASTSYYRFNYWGQGTQVTVSS	high polyreactivity
QVQLVESGGGLVQAGGSLRLSCAASGFTFRSNVMGWSRQAPGKERELVAGITQRGGRTYYADSEKGRFTISRDNAKNTVYLQMNSLKPEDTAVYYCAADRSEYDYWGQGTQVTVSS	high polyreactivity
QVQLVESGGGLVQAGGSLRLSCAASGFTFRSNVMGWYRQATGKERELVAAISWSGGSTYYADSVKGRFTISRDNAKNNVYLQMNSLKPEDTAVYYCATVQVVGPWSYRKLDYWGQGTQVTVSS	high polyreactivity
QVQLVESGGGLVQAGGSLRLSCAASGFTFRTNAMGWYRQAPGKERELVAVISRRGGSTYYADSVKGRFTISRDNAKNTVYLQMNSLKPEDTGVYYCNAGDGTVGRTYYRAYDYWGQGTQVTVSS	high polyreactivity
QVQLVESGGGLVQAGGSLRLSCAASGFTFRTYAMGWYRQAPGKERELVATIRRAGSTNYADSVKGRFTISRDNAKNTVYLQMNSLNPEDTAVYYCAARVVTRVRGVGYNYWGQGTQVTVSS	high polyreactivity
QVQLVESGGGLVQAGGSLRLSCAASGFTFRVNAMGWYRQAPGKERELVAAISSGGRTYYADSVKGRFTISRDNAKNTVYLQMNSLKPEDTAVYYCNAGRVRHGNDYWGQGTQVTVSS	high polyreactivity
QVQLVESGGGLVQAGGSLRLSCAASGFTFRVNAMGWYRQAPGKERELVAAISSGGSTNYADSVKGRFTISRDNAKYTVYLQMNSLKPEDTAVYYCAKRFKYIYYWGQGTQVTVSS	high polyreactivity
QVQLVESGGGLVQAGGSLRLSCAASGFTFRVNAMGWYRQAPGKERELVAAITYSGGSTYYADSVKGRFTISRDNAKNTVYLQMNSLKPEDTAVYYCNKARWNSWLYGYHYRGLRSYDYWGQGTQVSVSS	high polyreactivity
QVQLVESGGGLVQAGGSLRLSCAASGFTFRVNAMGWYRQAPGKERELVASITVSGGNTYYADSVKGRFTISRDNEKNTVYLLMNSLKPEDTAVYYCATDFSPVYYTRYDYWGQGTQVTVSS	low polyreactivity
QVQLVESGGGLVQAGGSLRLSCAASGFTFRVYAMGWYIQAPGKERELVAAITKRGGTTYYADSVKGRFTISRDNAKNTVYLQMNSLKPEDTAVYYCATENTPHYASHGYLGQGTQVTVSS	high polyreactivity
QVQLVESGGGLVQAGGSLRLSCAASGFTFRVYAMGWYRQAPGKERELVAVISGTGGRTYYADSVKGRFTISRDIAKNTVYLQMNSLKPEDTAVYYCARRGRPPAIYDYWGQGTQVTVSS	high polyreactivity
QVQLVESGGGLVQAGGSLRLSCAASGFTFRVYAMGWYRTAPVKEREFVASITWGGGRTYYADSVKGRFTISRDNAKNTVYLLMNSLKPEDTAVYYCAAYGSLDSYVSYYYWGQGTQVTVSS	high polyreactivity
QVQLVESGGGLVQAGGSLRLSCAASGFTFRWYAMGWYRPAPGKERELVADISRGGSTNYADSVKGRFTISRDNAKNTVYLQMNSLKPEDTAVYYCAAVVYRATYRVGGYLWYYYWGQGTQVTVSS	high polyreactivity
QVQLVESGGGLVQAGGSLRLSCAASGFTFRWYAMGWYRQAPGKERELVAAISSGGGSTYYADSVKGRFTISRDNAKNTVYLQMNSLKPEDTAVYYCNARIQYFKYRGYEYWGQGTQVTVSS	high polyreactivity
QVQLVESGGGLVQAGGSLRLSCAASGFTFRWYAMGWYRQAPGKERELVAAISSSGGSTYYADSVKGRFTISRDNAKNTVYLQMKSLKPEDTAVYYCNTDANYLTNTIYDYWGQGTQVTVSS	high polyreactivity
QVQLVESGGGLVQAGGSLRLSCAASGFTFRWYAMGWYRQAPGKERELVAAISTSGGSTYYADSVKGRFTITRDNAKNTVYLQMNSLKPEDTSVYYCNRVNNYPTRKYDYWGQGSQVTVSS	high polyreactivity
QVQLVESGGGLVQAGGSLRLSCAASGFTFRWYAMGWYRQAPGKERELVARISWDGGSTYYADSVKGRFTISRDNAKNTVYLQMNSLKPEDTAVYDCAKDWYYLRRNYDYWGQGTQVTVSS	high polyreactivity
QVQLVESGGGLVQAGGSLRLSCAASGFTFRWYTMGWYRPAPGKERELVAAISWSGTSTYYADSVKGRFTISRDNAKNTVYLQMNSLKPEDTAVYYCAAADFYYTGADDYWGQGTQVTVSS	high polyreactivity
QVQLVESGGGLVQAGGSLRLSCAASGFTFRWYTMGWYRQAPGKERELGAAINRGGSTYYADSVKGRFTISRDNAQNTVYLQMNSLKPEDTAVYYCAKSVSASWGRDYWGQGTQVTVSS	high polyreactivity
